assay: soluble on expression in E. coli; label from the status in PepcDB or PDB records

Sequence | soluble on expression in E. coli
MSDYQVLLYYKYTTIDDPETFAKEHLAACKEMELKGRILVATEGINGTVSGTVEATNKYMDYMANDARFADMVFKIDAADAHAFKKMHVRPRAEIVSLSLEEDVNPLEVTGTYLEPSEFREALLDEDTVILDARNDYEFDIGHFRGAVRPDIQNFRELPGWIEDNREQLADKKIVTYCTGGIRCEKFSGWLKTAGFDDVSQLHGGIATYGKNEETKGELWDGQMYVFDERIAVPINQVNPTIVGKDYFDGTPCERYINCANPYCNKQILASIENEKKYLRSCSHDCRVHPANLYTKNLSKEEFTERLQAIDETLPEMVQ | not soluble
MSEAAHSGAAPADLVELGRIASAYGVKGWVKVQPHSAQAEVLRTVSHWWLTRPAPQAARGVVASVPRAYQVLQARVHGGAVVAQLAGIDDRDQAEALRGCLVQAARSAFPAPADDEYYWVDLIGCALYSDADGESRLLGVVDEVFDNGAHAVLKVLRQQLQPGQPGPVPLVDPKGRPLEELVPFVRAHIRHVDLAARRIDSDWPLDYLEHHHHHH | soluble
MSEAIIAKKAEQVELIAEKMKAAASIVIVDSRGLTVDQDTVLRRSLRESGVEFKVIKNSILTRAAEKAGLDELKDVFVGPSAVAFSNEDVIAPAKVINDFTKTADALEIKGGAIEGAVSSKEEIQALATLPNREGMLSMLLSVLQAPVRNVAYAVKAVAENKEGAA | not soluble
MSEDKDMKNRNAMTIKRFVDVEEDGEHGGSGEFAELFQESIKQHRVGEVVTGKVVHISNEFVLVDIGYKSEGCIAIDEFLDEDGNLTVKVGDEVKALFERKENQKGYAVLSRRKAERLAVWDVIDEAGGEGGIIEGKITGKVKGGLTVDIGVQAFLPASQVDLRPGGNLDKYIGTTDRFKVLKLNKKRGNIVLSRRVLMEEERESSRKETLATLAEGQVREGVVKNITDYGAFVDIGGVDGLLHVTDMSWGRLGHPSEILKPGDKLNVKVLKYDQEKGKISLGLKQVTPDPWVSVEQKYNQGDRVKGKVVSLTDYGAFIALEDGVEGLVHVSEMSWTRRLRHPSEILTVGDEVETVVLGVDMGNRRISLGLKQVQVNPWTQLEEKYPVGTKLEGQIKSITDFGVFIGIEEGIDGLVHVSDISWTKRIKHPGEVFTKGQTVQAVVLNIDPENERLSLGIKQLLLDPWSEIPVKYRPGTRVHGKVTSVTDFGVFLEIEEGIEGLIHVSELSREKVASPKEFTNVGDELDAVVLSVDESEKKIALSIKSLQMAAEKAEIESYMQAQGEATSNLGELLKVGFRKNGDGNDLEHHHHHH | not soluble
MSEELSGVIIVLHKELSCRKEITDLQEISIALPDLMLSPKSKIVSDPASSKIDLNDRTTCSAEPNLFFVIFLSKNLNFSSKVFLSAVNNKSFSIQTRIT | not soluble
MSEHQSLPAPEASTEVRVAIVGVGNCASSLVQGVEYYYNADDTSTVPGLMHVRFGPYHVRDVKFVAAFDVDAKKVGFDLSDAIFASENNTIKIADVAPTNVIVQRGPTLDGIGKYYADTIELSDAEPVDVVQALKEAKVDVLVSYLPVGSEEADKFYAQCAIDAGVAFVNALPVFIASDPVWAKKFTDARVPIVGDDIKSQVGATITHRVLAKLFEDRGVQLDRTMQLNVGGNMDFLNMLERERLESKKISKTQAVTSNLKREFKTKDVHIGPSDHVGWLDDRKWAYVRLEGRAFGDVPLNLEYKLEVWDSPNSAGVIIDAVRAAKIAKDRGIGGPVIPASAYLMKSPPEQLPDDIARAQLEEFIIG | soluble
MSEIKTDDPKRGIKLRGADKTARIPIKVVPLQEKLKKPEWIRAKLPSRKFFEIKDILREQKMHTVCEEASCPNIGECFSKGTATFMIMGDICTRRCPFCDVGHGRPNMLDPDEPRNLAESVKAMNLRYVVITSVDRDDLRDGGAQHFADCIKAIRETSPNTKIEILVPDFRGRLDIALKILAETPPDVMNHNLETHPSLYRKARPGANYQHSLDLLKRYKEMMPHIPTKSGIMVGLGETDEDVREIMRDMRAHNIEMITIGQYLQPSDGHLPVLRYVTPEQFKIFEKEAYELGFSNAAIGAMVRSSYHADEQAAEALRESHGGCGHH | not soluble
MSEILFINGKVRFPITIDPTVWIFDDRKVDLTTYFDETRENTSELETYLKNTSEHWDREIRDGAAFPPIQQSVKKYKKEQLITGTFGIPFHPFLANAEILEDATQVEIETVDHTMTLPLETVKNAILGFSKEGKPLKEDGPVHLYFNDGSNQQNPIRNIRKFTII | not soluble
MSEKTFLVEIGTEELPPKALRSLAESFAANFTAELDNAGLAHGTVQWFAAPRRLALKVANLAEAQPDREIEKRGPAIAQAFDAEGKPSKAAEGWARGCGITVDQAERLTTDKGEWLLYRAHVKGESTEALLPNMVATSLAKLPIPKLMRWGASDVHFVRPVHTVTLLLGDKVIPATILGIQSDRVIRGHRFMGEPEFTIDNADQYPEILRERGKVIADYEERKAKIKADAEEAARKIGGNADLSESLLEEVASLVEWPVVLTAKFEEKFLAVPAEALVYTMKGDQKYFPVYANDGKLLPNFIFVANIESKDPQQIISGNEKVVRPRLADAEFFFNTDRKKRLEDNLPRLQTVLFQQQLGTLRDKTDRIQALAGWIAEQIGADVNHATRAGLLSKCDLMTNMVFEFTDTQGVMGMHYARHDGEAEDVAVALNEQYQPRFAGDDLPSNPVACALAIADKMDTLAGIFGIGQHPKGDKDPFALRRAALGVLRIIVEKNLNLDLQTLTEEAVRLYGDKLTNANVVDDVIDFMLGRFRAWYQDEGYTVDTIQAVLARRPTRPADFDARMKAVSHFRTLEAAAALAAANKRVSNILAKSDEVLSDRVNASTLKEPEEIKLAMQVVVLRDKLEPYFAEGRYQDALVELAELREPVDAFFDKVMVMVDDKELRLNRLTMLEKLRELFLRVADISLLQ | not soluble
MSELLEKAERLKTASQTLAMLSAEEKNAALEQIAQTLDRERAFILQENEKDMAQGCKQGLSPALLDRLQLTNERLDQIIDGVRQVASLPDPVGEIIAEWTRPNGLRIQTVRVPLGVIGMVYEARPNVTVDAASLCLKTGNAVLLRGSTSALHSNKALVRVMKEALRTTTVPETAIELLEDTSRETAQHMFRLNEYLDVLIPRGGAGLIRSVVENATVPVLETGVGNCHIFIDESAERQMAIDIVLNAKLQRPSVCNAVETVLIHERWPYADDLLETLHARGVELRGDQRLASAHPFVSEATEDDWYTEYLAPILAVKLVADVDEAIGHIRRYGTKHSEAIITENEANVRRFFQGVDAAVLYHNASTRFTDGEQFGYGAEIGISTQKLHARGPMGLVAITTTKSLVYGTGQIRE | not soluble
MSEMTKTPTHYRLLSTLKAMGPYLREGQCSERFYLFDCLASCVNDKKSPEKREFWGWWMELTQNEQEMSACYHIGRYTLAGDWVAEAIPESAQAEVNHTQAEFHKKLVKTLRERFEISVTVSTESAPFA | not soluble
MSEPLLIARTPDTELFLLPGMANRHGLITGATGTGKTVTLQKLAESLSEIGVPVFMADVKGDLTGVAQAGTVSEKLLARLKNIGVNDWQPHANPVVVWDIFGEKGHPVRATVSDLGPLLLARLLNLNDVQSGVLNIIFRIADDQGLLLLDFKDLRAITQYIGDNAKSFQNQYGNISSASVGAIQRGLLSLEQQGAAHFFGEPMLDIKDWMRTDANGKGVINILSAEKLYQMPKLYAASLLWMLSELYEQLPEAGDLEKPKLVFFFDEAHLLFNDAPQVLLDKIEQVIRLIRSKGVGVWFVSQNPSDIPDNVLGQLGNRVQHALRAFTPKDQKAVKAAAQTMRANPAFDTEKAIQELGTGEALISFLDAKGSPSVVERAMVIAPCSRMGPVTEDERNGLINHSPVYGKYEDEVDRESAYEMLQKGFQASTEQQNNPPAKGKEVAVDDGILGGLKDILFGTTGPRGGKKDGVVQTMAKSAARQVTNQIVRGMLGSLLGGRRR | soluble
MSEQLVTPENVTTKDGKINLLDLNRQQMREFFKDLGEKPFRADQVMKWMYHYCCDNFDEMTDINKVLRGKLKEVAEIRAPEVVEEQRSSDGTIKWAIAVGDQRVETVYIPEDDRATLCVSSQVGCALECKFCSTAQQGFNRNLRVSEIIGQVWRAAKIVGAAKVTGQRPITNVVMMGMGEPLLNLNNVVPAMEIMLDDFGFGLSKRRVTLSTSGVVPALDKLGDMIDVALAISLHAPNDEIRDEIVPINKKYNIETFLAAVRRYLEKSNANQGRVTIEYVMLDHVNDGTEHAHQLAELLKDTPCKINLIPWNPFPGAPYGRSSNSRIDRFSKVLMSYGFTTIVRKTRGDDIDAACGQLAGDVIDRTKRTLRKRMQGEAIDIKAV | soluble
MSEQSICQARASVMVYDDTSKKWVPIKPGQQGFSRINIYHNTASSTFRVVGVKLQDQQVVINYSIVKGLKYNQATPTFHQWRDARQVYGLNFASKEEATTFSNAMLFALNIMNSQEGGPSTQRQVQNGPS | soluble

From the DeepSol protein solubility set
